The results in this text go back to patent US12679878B2, “CRF2 receptor agonists and their use in therapy” (SANOFI, priority 2020, dated 2026).

For this test, the target named is human corticotropin-releasing factor 2α (CRF2 α receptor) (human), Q13324. The test can be described thus: cell-based or functional assay.

Starred links: 1 amine or outer side, 2 acyl side, 3 side chain; linkers in the order of their positions; H or OH if unused. Non-standard residues stand in square brackets, D forms with d. Groups on a side chain read outwards from the residue. No end group written: not given here. *: point of attachment. γGlu = O=C(O)[C@H](CCC(=O)[*:2])N[*:1]; Palmitoyl = CCCCCCCCCCCCCCCC(=O)*; Aib = CC(C)(N)C(=O)O

human corticotropin-releasing factor 2α (CRF2 α receptor) (human), Q13324, sequence (Q13324 20-411): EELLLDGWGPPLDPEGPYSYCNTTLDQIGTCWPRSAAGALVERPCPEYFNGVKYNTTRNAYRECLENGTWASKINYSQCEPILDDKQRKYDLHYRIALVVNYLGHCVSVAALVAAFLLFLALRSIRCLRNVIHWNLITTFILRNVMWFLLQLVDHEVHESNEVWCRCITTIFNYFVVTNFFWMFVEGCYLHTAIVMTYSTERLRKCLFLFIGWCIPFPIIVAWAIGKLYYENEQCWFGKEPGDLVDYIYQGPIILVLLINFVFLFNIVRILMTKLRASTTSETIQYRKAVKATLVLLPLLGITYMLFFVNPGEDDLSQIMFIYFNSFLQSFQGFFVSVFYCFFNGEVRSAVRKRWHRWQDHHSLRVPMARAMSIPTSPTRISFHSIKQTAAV

In the case of IVLSLD[dV]PTKLK([γGlu-Palmitoyl])QKLLKQERQRKEREQAEKNVRILERV-NH2 [SEQ ID NO: 32], the EC50 [nM], 0% HSA was determined as 0.01 nM.

B1: SEQ ID NO: 30 (peptide)
peptide: IVLSLD[dV]PTKLK([γGlu-Palmitoyl])KKLLKQERKRKEREQAEKAARILERV-NH2
modifications: N-terminus assumed
SMILES: CCCCCCCCCCCCCCCC(=O)N[C@@H](CCC(=O)NCCCC[C@H](NC(=O)[C@H](CC(C)C)NC(=O)[C@H](CCCCN)NC(=O)[C@@H](NC(=O)[C@@H]1CCCN1C(=O)[C@H](NC(=O)[C@H](CC(=O)O)NC(=O)[C@H](CC(C)C)NC(=O)[C@H](CO)NC(=O)[C@H](CC(C)C)NC(=O)[C@@H](NC(=O)[C@@H](N)[C@@H](C)CC)C(C)C)C(C)C)[C@@H](C)O)C(=O)N[C@@H](CCCCN)C(=O)N[C@@H](CCCCN)C(=O)N[C@@H](CC(C)C)C(=O)N[C@@H](CC(C)C)C(=O)N[C@@H](CCCCN)C(=O)N[C@@H](CCC(N)=O)C(=O)N[C@@H](CCC(=O)O)C(=O)N[C@@H](CCCNC(=N)N)C(=O)N[C@@H](CCCCN)C(=O)N[C@@H](CCCNC(=N)N)C(=O)N[C@@H](CCCCN)C(=O)N[C@@H](CCC(=O)O)C(=O)N[C@@H](CCCNC(=N)N)C(=O)N[C@@H](CCC(=O)O)C(=O)N[C@@H](CCC(N)=O)C(=O)N[C@@H](C)C(=O)N[C@@H](CCC(=O)O)C(=O)N[C@@H](CCCCN)C(=O)N[C@@H](C)C(=O)N[C@@H](C)C(=O)N[C@@H](CCCNC(=N)N)C(=O)N[C@H](C(=O)N[C@@H](CC(C)C)C(=O)N[C@@H](CCC(=O)O)C(=O)N[C@@H](CCCNC(=N)N)C(=O)N[C@H](C(N)=O)C(C)C)[C@@H](C)CC)C(=O)O
B1 had an EC50 [nM], 0% HSA of 0.16 nM.

B2: SEQ ID NO: 31 (peptide)
peptide: IVLSLD[dV]PTKLK([γGlu-Palmitoyl])QKLLKQERQRKEREQAEKN[Aib]RILERV-NH2
modifications: N-terminus assumed
SMILES: CCCCCCCCCCCCCCCC(=O)N[C@@H](CCC(=O)NCCCC[C@H](NC(=O)[C@H](CC(C)C)NC(=O)[C@H](CCCCN)NC(=O)[C@@H](NC(=O)[C@@H]1CCCN1C(=O)[C@H](NC(=O)[C@H](CC(=O)O)NC(=O)[C@H](CC(C)C)NC(=O)[C@H](CO)NC(=O)[C@H](CC(C)C)NC(=O)[C@@H](NC(=O)[C@@H](N)[C@@H](C)CC)C(C)C)C(C)C)[C@@H](C)O)C(=O)N[C@@H](CCC(N)=O)C(=O)N[C@@H](CCCCN)C(=O)N[C@@H](CC(C)C)C(=O)N[C@@H](CC(C)C)C(=O)N[C@@H](CCCCN)C(=O)N[C@@H](CCC(N)=O)C(=O)N[C@@H](CCC(=O)O)C(=O)N[C@@H](CCCNC(=N)N)C(=O)N[C@@H](CCC(N)=O)C(=O)N[C@@H](CCCNC(=N)N)C(=O)N[C@@H](CCCCN)C(=O)N[C@@H](CCC(=O)O)C(=O)N[C@@H](CCCNC(=N)N)C(=O)N[C@@H](CCC(=O)O)C(=O)N[C@@H](CCC(N)=O)C(=O)N[C@@H](C)C(=O)N[C@@H](CCC(=O)O)C(=O)N[C@@H](CCCCN)C(=O)N[C@@H](CC(N)=O)C(=O)NC(C)(C)C(=O)N[C@@H](CCCNC(=N)N)C(=O)N[C@H](C(=O)N[C@@H](CC(C)C)C(=O)N[C@@H](CCC(=O)O)C(=O)N[C@@H](CCCNC(=N)N)C(=O)N[C@H](C(N)=O)C(C)C)[C@@H](C)CC)C(=O)O
B2: the EC50 [nM], 0% HSA worked out at 0.01 nM.
